{"source": "paper PMC9638935", "about": "(Nucleic Acids Research, 2022)", "binders": {"B1": {"name": "Npl3 (natural protein, S. cerevisiae, UniProt Q01560 1-414, looked up)", "chain": "MSEAQETHVEQLPESVVDAPVEEQHQEPPQAPDAPQEPQVPQESAPQESAPQEPPAPQEQNDVPPPSNAPIYEGEESHSVQDYQEAHQHHQPPEPQPYYPPPPPGEHMHGRPPMHHRQEGELSNTRLFVRPFPLDVQESELNEIFGPFGPMKEVKILNGFAFVEFEEAESAAKAIEEVHGKSFANQPLEVVYSKLPAKRYRITMKNLPEGCSWQDLKDLARENSLETTFSSVNTRDFDGTGALEFPSEEILVEALERLNNIEFRGSVITVERDDNPPPIRRSNRGGFRGRGGFRGGFRGGFRGGFSRGGFGGPRGGFGGPRGGYGGYSRGGYGGYSRGGYGGSRGGYDSPRGGYDSPRGGYSRGGYGGPRNDYGPPRGSYGGSRGGYDGPRGDYGPPRDAYRTRDAPRERSPTR"}}, "key": {"[1]": {"biological_target": "T1, Cbp80 (tag not named for Figures 4C-D and 5D) (S. cerevisiae, UniProt P34160 1-861)", "T1 sequence (looked up)": "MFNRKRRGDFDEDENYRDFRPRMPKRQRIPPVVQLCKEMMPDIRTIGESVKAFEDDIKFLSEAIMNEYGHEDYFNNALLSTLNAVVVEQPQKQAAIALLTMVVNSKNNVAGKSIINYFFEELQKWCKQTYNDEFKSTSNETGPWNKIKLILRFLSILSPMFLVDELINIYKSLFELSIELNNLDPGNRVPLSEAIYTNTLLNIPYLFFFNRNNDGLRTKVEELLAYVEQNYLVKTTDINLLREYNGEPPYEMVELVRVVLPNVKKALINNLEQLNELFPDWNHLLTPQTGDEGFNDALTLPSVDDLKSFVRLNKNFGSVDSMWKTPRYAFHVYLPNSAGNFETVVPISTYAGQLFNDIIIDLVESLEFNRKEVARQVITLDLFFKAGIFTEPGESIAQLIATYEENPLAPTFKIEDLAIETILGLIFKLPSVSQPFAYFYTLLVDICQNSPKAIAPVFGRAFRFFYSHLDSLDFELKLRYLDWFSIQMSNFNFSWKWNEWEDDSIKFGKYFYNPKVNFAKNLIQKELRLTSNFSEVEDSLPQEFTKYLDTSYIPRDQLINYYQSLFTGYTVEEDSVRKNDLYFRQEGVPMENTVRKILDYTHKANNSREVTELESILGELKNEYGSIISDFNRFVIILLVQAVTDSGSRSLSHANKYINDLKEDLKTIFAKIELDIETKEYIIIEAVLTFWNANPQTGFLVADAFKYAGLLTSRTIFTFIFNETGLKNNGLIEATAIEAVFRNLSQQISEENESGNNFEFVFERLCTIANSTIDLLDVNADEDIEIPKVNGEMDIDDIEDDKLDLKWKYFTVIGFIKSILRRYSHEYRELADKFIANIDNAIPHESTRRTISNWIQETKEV", "assay": "co-IP"}, "Mex67": {"biological_target": "T2, Mex67 (S. cerevisiae, UniProt Q99257 1-599)", "T2 sequence (looked up)": "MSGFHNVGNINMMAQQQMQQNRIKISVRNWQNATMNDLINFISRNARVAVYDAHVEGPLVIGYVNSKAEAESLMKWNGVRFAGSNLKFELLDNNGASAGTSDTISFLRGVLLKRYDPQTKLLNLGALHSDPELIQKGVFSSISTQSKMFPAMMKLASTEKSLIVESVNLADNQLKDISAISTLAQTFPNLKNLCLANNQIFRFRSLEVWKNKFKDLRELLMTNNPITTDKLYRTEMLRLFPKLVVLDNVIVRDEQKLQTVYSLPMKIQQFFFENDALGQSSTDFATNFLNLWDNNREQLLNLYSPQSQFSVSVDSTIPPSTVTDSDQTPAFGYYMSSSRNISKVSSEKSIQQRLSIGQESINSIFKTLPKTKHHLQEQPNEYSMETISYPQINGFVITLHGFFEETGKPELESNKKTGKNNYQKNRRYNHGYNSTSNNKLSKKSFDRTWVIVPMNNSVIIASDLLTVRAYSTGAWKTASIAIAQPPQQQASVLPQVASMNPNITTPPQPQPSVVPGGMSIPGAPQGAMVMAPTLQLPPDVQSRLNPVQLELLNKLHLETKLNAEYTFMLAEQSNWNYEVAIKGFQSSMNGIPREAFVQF", "assay": "co-IP"}}, "data": [{"binder": "B1", "values": [{"measurement": "co-IP signal in cet1-2 relative to wild type", "setting": "[1]", "value": "~60", "unit": "%"}, {"measurement": "drop of the co-IP signal in cet1-2 and rat1-1 cells relative to wild type", "setting": "Mex67", "value": "~20", "unit": "%"}]}]}
